Target: human protein arginine deiminase 4 (PAD4) (human) (UniProt Q9UM07)
Sequence of UniProt Q9UM07 (Q9UM07 whole entry): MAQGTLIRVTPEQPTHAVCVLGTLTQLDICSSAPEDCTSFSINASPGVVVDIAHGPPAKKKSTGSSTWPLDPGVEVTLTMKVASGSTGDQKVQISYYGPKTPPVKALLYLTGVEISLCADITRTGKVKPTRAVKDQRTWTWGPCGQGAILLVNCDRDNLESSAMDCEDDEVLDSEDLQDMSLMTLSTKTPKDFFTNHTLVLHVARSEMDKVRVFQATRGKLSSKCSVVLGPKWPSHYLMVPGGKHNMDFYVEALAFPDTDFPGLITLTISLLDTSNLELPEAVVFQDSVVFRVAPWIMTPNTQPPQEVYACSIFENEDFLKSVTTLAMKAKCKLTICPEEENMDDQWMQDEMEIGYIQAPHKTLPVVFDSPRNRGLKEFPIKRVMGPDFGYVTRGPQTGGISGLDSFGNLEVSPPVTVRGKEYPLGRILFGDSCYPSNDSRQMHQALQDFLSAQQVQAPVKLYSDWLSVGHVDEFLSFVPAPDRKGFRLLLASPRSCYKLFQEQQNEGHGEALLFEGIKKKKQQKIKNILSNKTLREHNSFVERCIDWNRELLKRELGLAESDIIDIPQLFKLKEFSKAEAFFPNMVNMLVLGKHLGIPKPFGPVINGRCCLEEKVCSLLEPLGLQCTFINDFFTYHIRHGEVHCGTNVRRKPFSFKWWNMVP

| Binder | K d(app): hTRX concentration (0-10 uM) giving half-maximal activation of PAD4 (citrullination of BAEE) |
| --- | --- |
| C35S-hTRX (enzyme) MVKQIESKTAFQEALDAAGDKLVVVDFSATWCGPSKMIKPFFHSLSEKYSNVIFLEVDVDDCQDVASECEVKCMPTFQFFKKGQKVGEFSGANKEKLEATINELV | 1170 nM |
| C62S-hTRX (enzyme) MVKQIESKTAFQEALDAAGDKLVVVDFSATWCGPCKMIKPFFHSLSEKYSNVIFLEVDVDDSQDVASECEVKCMPTFQFFKKGQKVGEFSGANKEKLEATINELV | 1140 nM |
| C69S-hTRX (enzyme) MVKQIESKTAFQEALDAAGDKLVVVDFSATWCGPCKMIKPFFHSLSEKYSNVIFLEVDVDDCQDVASESEVKCMPTFQFFKKGQKVGEFSGANKEKLEATINELV | 1380 nM |
| IAA-treated hTRX (thiol-free variant) (enzyme, all cysteine residues chemically modified with iodoacetamide) MVKQIESKTAFQEALDAAGDKLVVVDFSATWCGPCKMIKPFFHSLSEKYSNVIFLEVDVDDCQDVASECEVKCMPTFQFFKKGQKVGEFSGANKEKLEATINELV | 620 nM |
| C73S-hTRX (enzyme) MVKQIESKTAFQEALDAAGDKLVVVDFSATWCGPCKMIKPFFHSLSEKYSNVIFLEVDVDDCQDVASECEVKSMPTFQFFKKGQKVGEFSGANKEKLEATINELV | 780 nM |
| C62/69S-hTRX (enzyme) MVKQIESKTAFQEALDAAGDKLVVVDFSATWCGPCKMIKPFFHSLSEKYSNVIFLEVDVDDSQDVASESEVKCMPTFQFFKKGQKVGEFSGANKEKLEATINELV | 610 nM |
| C32/35S-hTRX (enzyme) MVKQIESKTAFQEALDAAGDKLVVVDFSATWSGPSKMIKPFFHSLSEKYSNVIFLEVDVDDCQDVASECEVKCMPTFQFFKKGQKVGEFSGANKEKLEATINELV | 440 nM |

— article PMC6396667
